Test results published in patent US20240164355.

Legend:
[1] = molecular target: ISG15-AMC, P05161
[2] = molecular target: Nedd8-AMC, Q15843
[3] = molecular target: SUMO1-AMC, P63165
[4] = molecular target: SUMO2-AMC, P61956
[5] = molecular target: Ubiquitin-AMC (Ub-AMC), P0CG48
[6] = molecular target: all forms of lysine-linked (isopeptide-linked) diubiquitin

Ubiquitin-AMC (Ub-AMC), P0CG48, sequence (P0CG48 whole entry, looked up): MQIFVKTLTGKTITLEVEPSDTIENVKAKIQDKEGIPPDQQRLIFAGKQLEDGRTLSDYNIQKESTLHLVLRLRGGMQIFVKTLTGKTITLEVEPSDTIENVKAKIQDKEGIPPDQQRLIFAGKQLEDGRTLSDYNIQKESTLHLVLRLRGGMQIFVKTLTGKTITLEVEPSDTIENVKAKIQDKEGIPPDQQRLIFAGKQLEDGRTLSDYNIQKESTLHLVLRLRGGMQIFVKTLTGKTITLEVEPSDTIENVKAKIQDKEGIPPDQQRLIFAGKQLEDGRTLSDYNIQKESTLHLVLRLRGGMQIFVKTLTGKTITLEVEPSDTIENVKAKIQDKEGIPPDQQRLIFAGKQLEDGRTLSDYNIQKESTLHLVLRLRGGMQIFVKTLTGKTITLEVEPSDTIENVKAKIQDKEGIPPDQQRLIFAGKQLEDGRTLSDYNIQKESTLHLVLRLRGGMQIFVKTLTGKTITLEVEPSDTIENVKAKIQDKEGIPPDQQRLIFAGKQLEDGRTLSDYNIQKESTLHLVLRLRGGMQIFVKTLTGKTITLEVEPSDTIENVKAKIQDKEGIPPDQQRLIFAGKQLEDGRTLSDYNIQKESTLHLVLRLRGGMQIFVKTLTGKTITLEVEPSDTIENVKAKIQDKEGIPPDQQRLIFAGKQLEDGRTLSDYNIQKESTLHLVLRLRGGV
Nedd8-AMC, Q15843, sequence (Q15843 whole entry, looked up): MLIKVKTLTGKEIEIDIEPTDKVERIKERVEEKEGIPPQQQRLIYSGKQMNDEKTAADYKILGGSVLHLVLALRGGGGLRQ
SUMO2-AMC, P61956, sequence (P61956 1-93): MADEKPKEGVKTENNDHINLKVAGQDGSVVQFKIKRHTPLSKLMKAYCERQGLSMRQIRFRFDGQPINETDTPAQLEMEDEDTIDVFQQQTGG
SUMO1-AMC, P63165, sequence (P63165 2-97): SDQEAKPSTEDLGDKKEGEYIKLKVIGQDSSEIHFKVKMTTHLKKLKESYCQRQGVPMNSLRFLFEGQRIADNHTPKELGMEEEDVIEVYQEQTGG
ISG15-AMC, P05161, sequence (P05161 2-157): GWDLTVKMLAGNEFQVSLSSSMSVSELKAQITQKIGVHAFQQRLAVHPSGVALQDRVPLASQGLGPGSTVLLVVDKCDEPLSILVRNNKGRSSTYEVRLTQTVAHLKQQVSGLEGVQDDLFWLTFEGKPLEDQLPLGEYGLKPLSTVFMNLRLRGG

B1: CidB(762-1143) (protein)
chain: SSRPGGLVGPESVIDENPPEGLLSDQTRENFRRFYEEKAPGQNSIFLLDIGDNLHVPFSYLQGTRAQVIETLKSRIRGGGTPTAQGILQQINAILRRNNAREIEDVHDLLALDFATDNQNYRYWLQTHDMFFAARQYTFLDNQSHSTNDHYGFEITSVGVDGNQNDPTGRGLLSSHITNFKQKVDSGEKDRLIAIINVGNRHWVTLVIVHQNGNYYGYYADSLGPDSGIDNNIRGALRECDINDDNVHNISVHQQTDGHNCGIWVYENARDINQAIDQALQGNNNFGEKGEGIIGYIRGLLSAGIGNDTRQPRRNEQYFEDRRRDISQLLQNDPNLPSRRSDLIQAHPGIQHEIDPLLLQFLGLQYPQRGGGGALQLGGERV
UBL-AMC hydrolysis (AMC release) [1]: Despite testing human ISG15-AMC and SUMO1/2-AMC with several concentrations of CidB (up to 400 nM), we failed to detect any AMC release
kcat/KM for Nedd8-AMC [2]: its kcat/KM for Nedd8-AMC was determined to be 0.69 µM^-1 min^-1
UBL-AMC hydrolysis (AMC release) [3]: Despite testing human ISG15-AMC and SUMO1/2-AMC with several concentrations of CidB (up to 400 nM), we failed to detect any AMC release
UBL-AMC hydrolysis (AMC release) [4]: Despite testing human ISG15-AMC and SUMO1/2-AMC with several concentrations of CidB (up to 400 nM), we failed to detect any AMC release
catalytic efficiency for Ub-AMC relative to Nedd8-AMC [5]: CidB^wPip catalytic efficiency for hydrolyzing Ub-AMC is 11-fold greater than for Nedd8-AMC
kcat/KM for Ub-AMC hydrolysis [5]: the kcat/KM for Ub-AMC hydrolysis was 7.59 µM^-1 min^-1

B2: CidB^wMel (797-1128) (protein)
chain: QNSIFLLDIDDNLHVPFSYLQGTRAQAIETLRSRIRGGGTSTAQGILQQINTILRRNNAREIEDVHNLLALDFATENQNFRYWLQTHDMFFAARQYTFHDDRSNPTNDRHDFAITSVGVDGNQNDPTGRDLLSSNIDNFKQKVDSGEKDRLTAIINVGNRHWVTLVIVHQNGNYYGYYADSLGPDSRIDNNIRGALRECDISDDNVHDVSVHQQTDGHNCGIWAYENARDINQAIDQALQGNSNFGEKGEGIIGYIRGLLSAGIGNDTRQPQRNEQYFRNRRRNISQLFQNDSLSSPRGRLIQGRPGIQHEIDPLLLQFLELQYPQRGGGGA
Nedd8-AMC hydrolysis (AMC release) [2]: both CidB and CidB^wMel cleaved Ub-AMC, and to a much lesser extent, the UBL Nedd8-AMC
Ub-AMC hydrolysis (AMC release) [5]: both CidB and CidB^wMel cleaved Ub-AMC, and to a much lesser extent, the UBL Nedd8-AMC

B3: CidB (CidB^wPip), full length (protein)
chain: MSNGDGLIRSLVDGDLEGFRQGFESFLDQCPSFLYHVSAGRFLPVFFFSMFSTAHDANILNANERVYFRFDNHGVNPRNGENRNTANLKVAVYRDGQQVVRCYSISDRPNSDGLRFSTRERNALVQEIRRQNPNLREEDLNFEQYKVCMHGKGKSQGEAIATVFEVIREKDRQGRDKFAKYSASEVHFLRQLFRNHRLTIKEIEGRQLNQNQLRQLGRSVNFTRVEPGQQRIDNFMEMLASNQRQDVRDSLRGDILEYVTDTYNNYRAQIENNIEGRSQKFESHGFLLGFLANFSHRYTIGVDLDLSPRNSHVAFLVRHQVERENIPIVINLATRAPPYIALNRARSHAERLHVFSFIPIHTESRNTVCVGLNFNLNLDPFSVDTVGLQQDRFPLVQRLFECLENEGIRENIRDFLLHHLPAEIPRNAENYDRIFDCITGFAFGNSAFDRHPLELEEEDEAPITKYIFRHGDEGLRCLTMVFHAEGSDIVILHIRAHDAQQQGAINLQTLNVNGNDVHVWEVSCTLNNQLELDIDLPNDLGLYHDYQNNNANNFLAGDLVQVPNTENVHNTLNQVVNDGWKNIAQHRGLFQEISGALMPLVDTINVNSEDKFRSILHGTFYASDNPYKVLAMYKVGQTYSLKRGQEEEGERVILTRITEQRLDLLLLRQPRENDLDTHPIGYVLRLANNAEEVGQQQNDARQEIGRLKKQHRGFIPITSGNEVVLFPIVFNRDAHEAGNLILFPEGIGREEHVHRLDRHVRSSRPGGLVGPESVIDENPPEGLLSDQTRENFRRFYEEKAPGQNSIFLLDIGDNLHVPFSYLQGTRAQVIETLKSRIRGGGTPTAQGILQQINAILRRNNAREIEDVHDLLALDFATDNQNYRYWLQTHDMFFAARQYTFLDNQSHSTNDHYGFEITSVGVDGNQNDPTGRGLLSSHITNFKQKVDSGEKDRLIAIINVGNRHWVTLVIVHQNGNYYGYYADSLGPDSGIDNNIRGALRECDINDDNVHNISVHQQTDGHNCGIWVYENARDINQAIDQALQGNNNFGEKGEGIIGYIRGLLSAGIGNDTRQPRRNEQYFEDRRRDISQLLQNDPNLPSRRSDLIQAHPGIQHEIDPLLLQFLGLQYPQRGGGGALQLGGERVISIDFGNPQSALDKIDGVSRVYNHSNSRGSR
diubiquitin cleavage (panel digest) [6]: Full length CidB cleaves all forms of lysine-linked (isopeptide-linked) diubiquitin, albeit with variable efficiency
